In article doi:10.1101/2024.05.29.596450v1:

Substrate: O=C(Cc1cccs1)N[C@@H]1C(=O)N2C(C(=O)O)=C(/C=C/c3ccc([N+](=O)[O-])cc3[N+](=O)[O-])CS[C@H]12
Experiment: purified protein
Conditions: nitrocefin 50-200 μM, phosphate buffer pH 7.4

B1: PBP2a (Staphylococcus aureus) (protein)
chain: YASKDKEINNTIDAIEDKNFKQVYKDSSYISKSDNGEVEMTERPIKIYNSLGVKDINIQDRKIKKVSKNKKRVDAQYKIKTNYGNIDRNVQFNFVKEDGMWKLDWDHSVIIPGMQKDQSIHIENLKSERGKILDRNNVELANTGTAYEIGIVPKNVSKKDYKAIAKELSISEDYIKQQMDQKWVQDDTFVPLKTVKKMDEYLSDFAKKFHLTTNETESRNYPLEKATSHLLGYVGPINSEELKQKEYKGYKDDAVIGKKGLEKLYDKKLQHEDGYRVTIVDDNSNTIAHTLIEKKKKDGKDIQLTIDAKVQKSIYNNMKNDYGSGTAIHPQTGELLALVSTPSYDVYPFMYGMSNEEYNKLTEDKKEPLLNKFQITTSPGSTQKILTAMIGLNNKTLDDKTSYKIDGKGWQKDKSWGGYNVTRYEVVNGNIDLKQAIESSDNIFFARVALELGSKKFEKGMKKLGVGEDIPSDYPFYNAQISNKNLDNEILLADSGYGQGEILINPVQILSIYSALENNGNINAPHLLKDTKNKVWKKNIISKENINLLTDGMQQVVNKTHKEDIYRSYANLIGKSGTAELKMKQGETGRQIGWFISYDKDNPNMMMAINVKDVQDKGMASYNAKISGKVYDELYENGNKKYDIDE
With B1 the Km was 29.28 µM and the kcat was 259.1 s⁻¹.
